Source: article PMC4973471 (Nature structural & molecular biology, 2016)

B1: human HSF2 DNA-binding domain (amino acids 8–115) (domain or fragment, UniProt Q03933 8-115, looked up)
chain: PAFLSKLWTLVEETHTNEFITWSQNGQSFLVLDEQRFAKEILPKYFKHNNMASFVRQLNMYGFRKVVHIDSGIVKQERDGPVEFQHPYFKQGQDDLLENIKRKVSSSK
B2: 2-site HSE (dsDNA)
DNA 1: GGTTCTAGAACC
DNA 2: GGTTCTAGAACC

Experiments:
crystal structure = biological target: the molecule itself; test: crystal structure
HSF2 DBD = HSF2 DBD (Homo sapiens, UniProt Q03933 8-115); test: X-ray crystallography

Binder | binding result (crystal structure) | binding result (HSF2 DBD)
B1 | binds | 
B2 |  | binds
